B1: scFv 5 (scFv)
scFv: QPVLTQPPSVSGSLGQRVTISCSGSTNTIGVVGANWYQQLPGKSPKLLVYSDGVRPSGVPDRFSGSRSANSDTLTITGLQAEDEADYYCQSFDSTHNAIVFGGGTHLTVLGGGSSRSSSSGGGGSGGGGEVQLVETGGDLVKPAGSLRLSCAASGFPFSGYSMTWVRQAPEKGLQLVAGINSDGSHTYYTDDVKGRFTISRDNTKYILYLQMNSLRAEDTAMYYCGSHSWGNFHYWGQGTLVTVSSESPSPPNLTSGQAGQHHHHHHGAYPYDVPDYAS
notes: Canine scFv (VL-linker-VH); also called scFv_05; P3-14
B2: scFv 8 (scFv)
scFv: QSVLTQPASVSGSLGQKVTISCTGSRSNIGANYVGWYQQVPGIGPRTVIFGYNYRPSGVPDRFSSSKSGNSATLTISGLQAEDEAEYYCSSWDDSLRGTVFGSGTQLTVLGGGSSRSSSSGDGGSGGGGEVQLVESGGDLVKPGESLRLSCVASGFTFSSYGMSWVRQSPGKGLQWVADISYGGGTYYADAVKGRFTISRDNARNTVYLQMNSLRAEDTAVYYCASQWGDWGHFEYWGQGTLVTVSSASTTAPSVTSGQAGQHHHHHHGAYPYDVPDYAS
notes: Canine scFv (VL-linker-VH); also called scFv_08; P3-16
B3: scFv 7 (scFv)
scFv: SYELTQPPSMSAALGQRVTISCTGSNTNIGSGYDVQWYQQVPGKSPTPLIYGNTNRPSGVPVRFSGSKSGNTATLTITGIQAEDEADYYCQSYDDNFDGHHVFGSGTQLTVLGGGSSRSSSSGGGGSGGGGEVQLVESGGDLVKPAGSLRLSCVASGFTFSNYGMNWVRQAPGKGLQWVAGINSGGSTTTYADVVKGRFTISRDNAKNTLYLQMNSLGAEDTAVYYCARVDYSSSWLVDYWGQGTLVTVSSASTTAPSVTSGQAGQHHHHHHGAYPYDVPDYAS
notes: Canine scFv (VL-linker-VH); also called scFv_07; P3-47
B4: scFv 9 (scFv)
scFv: QPVLTQPPSVSAALGQRVTLSCTGSKTNIGSGYDVQWYQQFPGKSPKTIIYGNSNRFSGVPARFSGSKSGSIATLTITGIQAEDEADYYCQSFDDNVDGYVFGSGTQLTILGGGSSRSSSSGGGGSGGGGEVQLVESGGDLVKPGGSLRLSCVASGFTFSSDSIHWVRQAPGKGLQWVAYINSGGSTTYYADAVKGRFTISRDNARNTVYLKMNSLRAEDTAVYYCAKDSGFGSWYLESWGQGTLVTVSPASTTAPSVTSGQAGQHHHHHHGAYPYDVPDYAS
notes: Canine scFv (VL-linker-VH); also called scFv_09; P3-41

In the experiment the target is T1, human CD19 protein with a biotinylated AviTag (Acrobiosystems) (human, UniProt P15391 20-291, biotinylated AviTag).
T1 construct: Captured on streptavidin-coated microplate wells; also called biotinylated-AviTag-CD19; hCD19; not shown: AviTag
T1 sequence (looked up): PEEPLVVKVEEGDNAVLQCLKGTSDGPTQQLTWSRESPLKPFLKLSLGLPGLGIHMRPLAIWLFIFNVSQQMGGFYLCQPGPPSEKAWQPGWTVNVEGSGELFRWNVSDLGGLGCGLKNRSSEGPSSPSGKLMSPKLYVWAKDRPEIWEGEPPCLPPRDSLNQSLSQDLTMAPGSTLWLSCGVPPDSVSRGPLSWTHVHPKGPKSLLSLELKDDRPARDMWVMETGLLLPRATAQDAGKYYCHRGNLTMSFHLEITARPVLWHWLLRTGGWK
The experiment is described as follows: phage ELISA, biotinylated AviTag CD19 on streptavidin wells; signal ratio to FMC63 standard. An excerpt:
To identify unique human CD19-binding monoclonal scFv from the panned libraries, individual phage antibody clones were expanded, assessed for binding to CD19 by ELISA, and subjected to nucleotide sequencing to identify those clones that were unique. A total of 84 scFvs were randomly selected from the panned libraries (70 from P3 and 14 from P4).
As to B1, the “ELISA hCD19 (ratio FMC63)” value was 0.48 ratio to FMC63.

For the molecule B2, the “ELISA hCD19 (ratio FMC63)” value is 0.41 ratio to FMC63. Next, B3: 0.83 ratio to FMC63.

For the molecule B4, the “ELISA hCD19 (ratio FMC63)” value was 0.71 ratio to FMC63.

Values taken from patent US20240358834A1 (University of Pennsylvania, published 2024).
